The supplement of paper PMC5998384

Assays:
HeLa Kyoto [1] = experiment: thermal stability score vs G1/S (z-score of summed log2 fold changes over temperatures); higher = more thermally stable than in G1/S
HeLa Kyoto [2] = experiment: solubility change mitosis vs G1/S (difference of NP-40 vs SDS log2 ratios) (log2 ratio difference); higher = more soluble in mitosis
HeLa Kyoto [3] = experiment: melting temperature (median over replicates), in situ; higher = more thermally stable
HeLa Kyoto [4] = experiment: solubility in G1/S (NP-40 vs SDS abundance) (log2 ratio); higher = more soluble; conditions: cell cycle stage: G1/S
[5] = cell cycle stage: early G1 (4.5 h after nocodazole release)
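Throughout, for melting temperature (median over replicates), in situ: HeLa Kyoto cells synchronized by double thymidine or nocodazole block, proteins quantified by TMT10plex mass spectrometry, three independent biological replicates.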
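Throughout, for solubility change mitosis vs G1/S (difference of NP-40 vs SDS log2 ratios): synchronized HeLa Kyoto cells (double thymidine block for G1/S, nocodazole release for mitosis), protein amounts in NP-40 versus SDS lysates quantified by mass spectrometry, three biological replicates.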
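Throughout, for solubility in G1/S (NP-40 vs SDS abundance): HeLa Kyoto cells arrested at G1/S by double thymidine block, proteins quantified by TMT10plex mass spectrometry in mild NP-40 versus SDS extracts, three biological replicates.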
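Throughout, for thermal stability score vs G1/S (z-score of summed log2 fold changes over temperatures): synchronized HeLa Kyoto cells, proteins quantified by TMT10plex mass spectrometry, three biological replicates, mitosis taken 0.5 h after nocodazole release, G1/S directly after double thymidine block.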

Sequence	thermal stability score (HeLa Kyoto [1]; [5])	thermal stability score (HeLa Kyoto [1]; cell cycle stage: mitosis)	solubility change mitosis (log2) (HeLa Kyoto [2])	melting temperature (HeLa Kyoto [3]; cell cycle stage: G1/S) [°C]	melting temperature (HeLa Kyoto [3]; cell cycle stage: mitosis) [°C]	solubility in G1/S (log2) (HeLa Kyoto [4])
MAGPGPGAVLESPRQLLGRVRFLAEAARSLRAGRPLPAALAFVPREVLYKLYKDPAGPSRVLLPVWEAEGLGLRVGAAGPAPGTGSGPLRAARDSIELRRGACVRTTGEELCNGHGLWVKLTKEQLAEHLGDCGLQEGWLLVCRPAEGGARLVPIDTPNHLQRQQQLFGVDYRPVLRWEQVVDLTYSHRLGSRPQPAEAYAEAVQRLLYVPPTWTYECDEDLIHFLYDHLGKEDENLGSVKQYVESIDVSSYTEEFNVSCLTDSNADTYWESDGSQCQHWVRLTMKKGTIVKKLLLTVDTTDDNFMPKRVVVYGGEGDNLKKLSDVSIDETLIGDVCVLEDMTVHLPIIEIRIVECRDDGIDVRLRGVKIKSSRQRELGLNADLFQPTSLVRYPRLEGTDPEVLYRRAVLLQRFIKILDSVLHHLVPAWDHTLGTFSEIKQVKQFLLLSRQRPGLVAQCLRDSESSKPSFMPRLYINRRLAMEHRACPSRDPACKNAVFTQVYEGLKPSDKYEKPLDYRWPMRYDQWWECKFIAEGIIDQGGGFRDSLADMSEELCPSSADTPVPLPFFVRTANQGNGTGEARDMYVPNPSCRDFAKYEWIGQLMGAALRGKEFLVLALPGFVWKQLSGEEVSWSKDFPAVDSVLVKLLEVMEGMDKETFEFKFGKELTFTTVLSDQQVVELIPGGAGIVVGYGDRSRFIQLVQKARLEESKEQVAAMQAGLLKVVPQAVLDLLTWQELEKKVCGDPEVTVDALRKLTRFEDFEPSDSRVQYFWEALNNFTNEDRSRFLRFVTGRSRLPARIYIYPDKLGYETTDALPESSTCSSTLFLPHYASAKVCEEKLRYAAYNCVAIDTDMSPWEE [HECTD3]	0.000139	-0.669	-0.123	51.8	51	-0.0837
MAGPGWGPPRLDGFILTERLGSGTYATVYKAYAKKDTREVVAIKCVAKKSLNKASVENLLTEIEILKGIRHPHIVQLKDFQWDSDNIYLIMEFCAGGDLSRFIHTRRILPEKVARVFMQQLASALQFLHERNISHLDLKPQNILLSSLEKPHLKLADFGFAQHMSPWDEKHVLRGSPLYMAPEMVCQRQYDARVDLWSMGVILYEALFGQPPFASRSFSELEEKIRSNRVIELPLRPLLSRDCRDLLQRLLERDPSRRISFQDFFAHPWVDLEHMPSGESLGRATALVVQAVKKDQEGDSAAALSLYCKALDFFVPALHYEVDAQRKEAIKAKVGQYVSRAEELKAIVSSSNQALLRQGTSARDLLREMARDKPRLLAALEVASAAMAKEEAAGGEQDALDLYQHSLGELLLLLAAEPPGRRRELLHTEVQNLMARAEYLKEQVKMRESRWEADTLDKEGLSESVRSSCTLQ [ULK3]	-0.375	-0.212	-0.125	49.9	49.6	0.0298
MAGPRVEVDGSIMEGGGQILRVSTALSCLLGLPLRVQKIRAGRSTPGLRPQHLSGLEMIRDLCDGQLEGAEIGSTEITFTPEKIKGGIHTADTKTAGSVCLLMQVSMPCVLFAASPSELHLKGGTNAEMAPQIDYTVMVFKPIVEKFGFIFNCDIKTRGYYPKGGGEVIVRMSPVKQLNPINLTERGCVTKIYGRAFVAGVLPFKVAKDMAAAAVRCIRKEIRDLYVNIQPVQEPKDQAFGNGNGIIIIAETSTGCLFAGSSLGKRGVNADKVGIEAAEMLLANLRHGGTVDEYLQDQLIVFMALANGVSRIKTGPVTLHTQTAIHFAEQIAKAKFIVKKSEDEEDAAKDTYIIECQGIGMTNPNL [RTCA]	-1.26	-1.94	-0.173	54.4	54.4	0.177
MAGQQFQYDDSGNTFFYFLTSFVGLIVIPATYYLWPRDQNAEQIRLKNIRKVYGRCMWYRLRLLKPQPNIIPTVKKIVLLAGWALFLFLAYKVSKTDREYQEYNPYEVLNLDPGATVAEIKKQYRLLSLKYHPDKGGDEVMFMRIAKAYAALTDEESRKNWEEFGNPDGPQATSFGIALPAWIVDQKNSILVLLVYGLAFMVILPVVVGSWWYRSIRYSGDQILIRTTQIYTYFVYKTRNMDMKRLIMVLAGASEFDPQYNKDATSRPTDNILIPQLIREIGSINLKKNEPPLTCPYSLKARVLLLSHLARMKIPETLEEDQQFMLKKCPALLQEMVNVICQLIVMARNREEREFRAPTLASLENCMKLSQMAVQGLQQFKSPLLQLPHIEEDNLRRVSNHKKYKIKTIQDLVSLKESDRHTLLHFLEDEKYEEVMAVLGSFPYVTMDIKSQVLDDEDSNNITVGSLVTVLVKLTRQTMAEVFEKEQSICAAEEQPAEDGQGETNKNRTKGGWQQKSKGPKKTAKSKKKKPLKKKPTPVLLPQSKQQKQKQANGVVGNEAAVKEDEEEVSDKGSDSEEEETNRDSQSEKDDGSDRDSDREQDEKQNKDDEAEWQELQQSIQRKERALLETKSKITHPVYSLYFPEEKQEWWWLYIADRKEQTLISMPYHVCTLKDTEEVELKFPAPGKPGNYQYTVFLRSDSYMGLDQIKPLKLEVHEAKPVPENHPQWDTAIEGDEDQEDSEGFEDSFEEEEEEEEDDD [SEC63]	-0.144	-1.37	-0.1	53	53.1	-0.14
MAGRGGAARPNGPAAGNKICQFKLVLLGESAVGKSSLVLRFVKGQFHEYQESTIGAAFLTQTVCLDDTTVKFEIWDTAGQERYHSLAPMYYRGAQAAIVVYDITNTDTFARAKNWVKELQRQASPNIVIALAGNKADLASKRAVEFQEAQAYADDNSLLFMETSAKTAMNVNEIFMAIAKKLPKNEPQNATGAPGRNRGVDLQENNPASRSQCCSN [RAB5C]	-2.16	-3.11	-0.161	58.7	59.4	0.382
